According to publication PMC2836074 (The Journal of Biological Chemistry, 2009):

Tests used:
EGFP-F1LΔBH1 = EGFP-F1LΔBH1 (vaccinia virus strain Copenhagen, UniProt P68450 1-226, lacks amino acids 144–156); assay: co-IP
EGFP-F1LΔBH3 = EGFP-F1LΔBH3 (vaccinia virus strain Copenhagen, UniProt P68450 1-226, lacks amino acids 93–108); assay: co-IP

B1: HA-Bak (natural protein)
chain: MASGQGPGPPRQECGEPALPSASEEQVAQDTEEVFRSYVFYRHQQEQEAEGVAAPADPEMVTLPLQPSSTMGQVGRQLAIIGDDINRRYDSEFQTMLQHLQPTAENAYEYFTKIATSLFESGINWGRVVALLGFGYRLALHVYQHGLTGFLGQVTRFVVDFMLHHCIARWIAQRGGWVAALNLGNGPILNVLVVLGVVLLGQFVVRRFFKS
fold decrease in Bak binding compared with wild-type F1L (EGFP-F1LΔBH1): 8 fold | fold decrease in Bak binding compared with wild-type F1L (EGFP-F1LΔBH3): 3 fold
